Results taken from the supplement of paper PMC10126150.
± gives the standard deviation of the averaged measurements.

What follows are sequences tested on ATP (assay: switch fluorescence ratio, 500 uM ATP over buffer (Cy3 cluster intensity, sum of 5 cycles each) (fold (ratio)); higher = stronger signal-on switching upon ATP binding; sequences stand for … in TCGTCGGCAGCGTCAGATGTGTATAAGAGACAGTTTTTTTTTTTTTTTTTTTTTTTTT…TC). Details: aptamer strand: ATP DNA aptamer (quencher-CACCTGGGGGAGTATTGCGGAGGAAGG + anchor), 100 nM annealed; ATP concentration: 500 uM.
Summary of the method: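 Imaging in selection buffer was followed by imaging after 15 min with 500 uM ATP at 22 °C, for Cy3-labelled switching-strand clusters annealed to 100 nM quencher-labelled ATP aptamer on a modified Illumina MiSeq flow-cell. Five of these buffer/ATP cycles ran, separated by NaOH stripping and re-annealing. The fluorescence ratio per cluster is summed target-cycle over summed buffer-cycle Cy3 intensity, averaged per switch-domain sequence; clusters outside 100-1000 RFU were removed.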
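Note: ATP exposure 15 min at 22 °C before imaging.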

| Sequence | switch fluorescence ratio |
| --- | --- |
| GGTGGGGCAG | 0.9643 ± 0.0041 |
| GGTGGGGCGA | 1.01 ± 0.041 |
| GGTGGGGGGG | 1 ± 0.036 |
| GGTGGGGGGT | 0.989 ± 0.029 |
| GGTGGGGTTA | 0.984 ± 0.038 |
| GGTGGGTTGT | 1.03 ± 0.076 |
| GGTGGTAGGA | 0.98 ± 0.041 |
| GGTGGTAGTT | 1.012 ± 0.003 |
| GGTGGTGAGC | 1 ± 0.026 |
| GGTGGTTGTA | 0.919 ± 0.043 |
| GGTGTAACAG | 0.991 ± 0.012 |
| GGTGTACCGG | 1.004 ± 0.0092 |
| GGTGTAGGAC | 1.03 ± 0.012 |
| GGTGTCTGCG | 1.01 ± 0.013 |
| GGTGTGATTT | 1 ± 0.025 |
| GGTGTGCATC | 1 ± 0.018 |
| GGTGTGGCCG | 1.02 ± 0.062 |
| GGTGTGGCGC | 0.955 ± 0.0063 |
| GGTGTGGGAT | 1.01 ± 0.057 |
| GGTGTGGTCA | 0.977 ± 0.035 |
| GGTGTGTATC | 1.01 ± 0.02 |
| GGTGTGTGGT | 1.002 ± 0.0029 |
| GGTGTTACGT | 0.971 ± 0.017 |
| GGTGTTAGGT | 0.9925 ± 0.0029 |
| GGTGTTCAGC | 0.981 ± 0.04 |

| Sequence | switch fluorescence ratio |
| --- | --- |
| GGTGTTCAGG | 1.042 ± 0.0083 |
| GGTGTTGGGG | 1.0211 ± 3.7e-05 |
| GGTGTTGGTT | 1.008 ± 0.0093 |
| GGTGTTGTG | 0.974 ± 0.081 |
| GGTGTTGTTG | 1.017 ± 0.0023 |
| GGTTAAACAA | 1.01 ± 0.016 |
| GGTTAACTTA | 0.979 ± 0.042 |
| GGTTAAGCTT | 1.007 ± 0.0078 |
| GGTTAAGGAT | 0.9884 ± 0.0023 |
| GGTTAAGGCC | 1.033 ± 0.007 |
| GGTTAAGGGA | 0.982 ± 0.024 |
| GGTTAAGGGG | 1.05 ± 0.13 |
| GGTTAAGGTC | 1 ± 0.029 |
| GGTTAAGTTT | 0.969 ± 0.025 |
| GGTTAATGGA | 0.9833 ± 0.0035 |
| GGTTAATGGC | 1.05 ± 0.039 |
| GGTTACAGTT | 1.036 ± 0.01 |
| GGTTACATTG | 0.993 ± 0.019 |
| GGTTACGGC | 1.07 ± 0.17 |
| GGTTAGCGG | 0.9599 ± 0.0026 |
| GGTTAGGGAC | 1.04 ± 0.04 |
| GGTTAGGGAG | 1.002 ± 0.0089 |
| GGTTAGGGGG | 1 ± 0.052 |
| GGTTAGTACT | 0.999 ± 0.017 |
| GGTTATAGGG | 0.9802 ± 0.008 |

| Sequence | switch fluorescence ratio |
| --- | --- |
| GGTTATAGTT | 1.01 ± 0.011 |
| GGTTATCGGC | 1.01 ± 0.017 |
| GGTTATGAGT | 0.99 ± 0.017 |
| GGTTATTGGA | 0.995 ± 0.058 |
| GGTTATTTTT | 1.01 ± 0.036 |
| GGTTCAAAAC | 0.997 ± 0.059 |
| GGTTCAACGG | 0.982 ± 0.014 |
| GGTTCAATCT | 0.9815 ± 0.0012 |
| GGTTCACGGG | 0.983 ± 0.015 |
| GGTTCACTTT | 1.02 ± 0.033 |
| GGTTCAGGGG | 2.26 ± 1.8 |
| GGTTCCTATG | 0.9909 ± 0.0079 |
| GGTTCTGAGC | 0.986 ± 0.02 |
| GGTTCTGGGT | 1 ± 0.02 |
| GGTTCTGTCC | 1.03 ± 0.021 |
| GGTTCTTGAA | 0.994 ± 0.019 |
| GGTTCTTGG | 0.995 ± 0.062 |
| GGTTCTTTTC | 0.996 ± 0.037 |
| GGTTGAAATG | 0.939 ± 0.072 |
| GGTTGAGCGT | 1.01 ± 0.047 |
| GGTTGAGCTC | 0.973 ± 0.063 |
| GGTTGAGGAC | 1.01 ± 0.057 |
| GGTTGAGGG | 0.997 ± 0.001 |
| GGTTGAGGGA | 0.979 ± 0.016 |
| GGTTGATAGA | 1.01 ± 0.028 |

| Sequence | switch fluorescence ratio |
| --- | --- |
| GGTTGATGGG | 0.999 ± 0.038 |
| GGTTGCATCA | 0.994 ± 0.032 |
| GGTTGCATCG | 0.986 ± 0.012 |
| GGTTGCGGGT | 0.9874 ± 0.0056 |
| GGTTGCGTCG | 1.01 ± 0.014 |
| GGTTGGACCA | 0.9602 ± 0.0032 |
| GGTTGGATTA | 0.9787 ± 0.00083 |
| GGTTGGCCGC | 1.02 ± 0.032 |
| GGTTGGGGGG | 1 ± 0.036 |
| GGTTGGGTTA | 1.033 ± 0.0083 |
| GGTTGGTGCA | 1.02 ± 0.013 |
| GGTTGTAGGC | 1.02 ± 0.017 |
| GGTTGTGAAG | 0.994 ± 0.043 |
| GGTTGTGCGA | 0.98322 ± 0.00037 |
| GGTTGTTAGG | 0.9796 ± 0.0055 |
| GGTTTAAAAT | 0.9581 ± 0.0094 |
| GGTTTAAGTG | 0.979 ± 0.052 |
| GGTTTAATCG | 1.01 ± 0.046 |
| GGTTTAATGG | 1.01 ± 0.018 |
| GGTTTAATTA | 0.972 ± 0.03 |
| GGTTTAGCG | 1.014 ± 0.0025 |
| GGTTTAGCTC | 0.999 ± 0.038 |
| GGTTTAGGAA | 1 ± 0.028 |
| GGTTTAGGAG | 1.01 ± 0.062 |
| GGTTTAGGCT | 1.08 ± 0.12 |
